Columns and labels:
Test in all cases: Kd (EC50 corrected by depletion factor)
RPS17 = RPS17 (UniProt P08708)
Method in brief: (§1)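 Over three biological replicates and two independent experiments, proteins captured on NHS-Sepharose beads carrying 5′-amino-C6 RNA oligos were quantified by label-free LC-MS/MS and normalised to the control. Capture lasted 30 min at 4°C and followed a 1 h pre-incubation at 4°C of HEK293-FT lysate (2.5 mg protein/well) with the same oligos in free form (0 nM to 30 μM). EC50 was taken from a four-parameter log-logistic fit, and Kd was EC50 corrected by a protein-dependent depletion factor.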

PTBP3 = PTBP3 (UniProt O95758)
Sequence of PTBP3 (O95758 whole entry): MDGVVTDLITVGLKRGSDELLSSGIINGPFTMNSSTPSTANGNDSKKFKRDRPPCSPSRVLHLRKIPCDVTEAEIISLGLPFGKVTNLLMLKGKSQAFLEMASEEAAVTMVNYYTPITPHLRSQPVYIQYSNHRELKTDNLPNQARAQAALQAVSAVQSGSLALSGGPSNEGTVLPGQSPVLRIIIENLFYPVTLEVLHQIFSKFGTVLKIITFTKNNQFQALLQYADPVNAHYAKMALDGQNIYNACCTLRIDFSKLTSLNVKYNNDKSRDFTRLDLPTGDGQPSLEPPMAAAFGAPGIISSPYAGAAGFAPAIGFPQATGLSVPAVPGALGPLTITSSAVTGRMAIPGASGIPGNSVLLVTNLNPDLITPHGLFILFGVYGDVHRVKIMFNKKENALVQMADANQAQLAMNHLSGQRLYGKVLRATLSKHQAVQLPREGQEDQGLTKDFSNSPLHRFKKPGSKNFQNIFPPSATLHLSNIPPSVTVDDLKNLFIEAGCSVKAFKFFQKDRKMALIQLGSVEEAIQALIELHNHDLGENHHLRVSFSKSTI
Method in brief: as §1

TIA1 = molecular target: T1, TIA1 (UniProt P31483)
T1 sequence: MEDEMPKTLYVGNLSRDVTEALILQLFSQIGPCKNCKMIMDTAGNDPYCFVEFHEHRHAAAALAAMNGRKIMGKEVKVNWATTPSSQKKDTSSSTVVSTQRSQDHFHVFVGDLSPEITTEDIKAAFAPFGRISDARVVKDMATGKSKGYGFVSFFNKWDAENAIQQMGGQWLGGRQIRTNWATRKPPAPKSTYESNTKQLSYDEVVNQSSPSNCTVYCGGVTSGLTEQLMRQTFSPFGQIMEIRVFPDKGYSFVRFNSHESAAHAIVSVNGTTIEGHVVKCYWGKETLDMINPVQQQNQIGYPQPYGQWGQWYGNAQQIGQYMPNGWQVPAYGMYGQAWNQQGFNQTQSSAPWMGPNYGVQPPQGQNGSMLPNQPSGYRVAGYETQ
Method in brief: as §1

PIP5K1A = PIP5K1A (UniProt Q99755)
Sequence of PIP5K1A (Q99755 whole entry): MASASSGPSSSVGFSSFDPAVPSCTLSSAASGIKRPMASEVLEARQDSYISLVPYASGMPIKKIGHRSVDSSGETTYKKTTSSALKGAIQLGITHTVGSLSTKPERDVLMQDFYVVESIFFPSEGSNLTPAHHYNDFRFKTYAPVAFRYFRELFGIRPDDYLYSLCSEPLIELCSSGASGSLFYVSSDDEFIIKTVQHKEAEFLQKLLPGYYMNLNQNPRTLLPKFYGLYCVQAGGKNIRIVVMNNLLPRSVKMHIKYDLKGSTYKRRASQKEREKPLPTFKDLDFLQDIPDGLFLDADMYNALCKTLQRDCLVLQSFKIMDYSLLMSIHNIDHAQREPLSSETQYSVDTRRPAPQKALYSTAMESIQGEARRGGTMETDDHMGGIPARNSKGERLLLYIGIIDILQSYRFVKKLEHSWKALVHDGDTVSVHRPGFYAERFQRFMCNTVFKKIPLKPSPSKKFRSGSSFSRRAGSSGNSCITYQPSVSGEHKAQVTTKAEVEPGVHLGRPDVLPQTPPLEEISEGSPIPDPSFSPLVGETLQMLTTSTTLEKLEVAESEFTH
Method in brief: as §1

U2AF1 = molecular target: T2, U2AF1 (UniProt Q01081)
T2 sequence: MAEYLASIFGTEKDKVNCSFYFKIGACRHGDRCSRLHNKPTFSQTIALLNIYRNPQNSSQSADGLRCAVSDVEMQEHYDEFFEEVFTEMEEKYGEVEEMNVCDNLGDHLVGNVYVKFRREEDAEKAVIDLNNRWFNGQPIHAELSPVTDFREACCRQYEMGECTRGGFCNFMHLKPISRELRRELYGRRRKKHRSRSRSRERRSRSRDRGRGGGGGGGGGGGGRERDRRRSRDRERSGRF
Method in brief: as §1

TUBB2A = TUBB2A (UniProt Q13885)
Sequence of TUBB2A (Q13885 whole entry): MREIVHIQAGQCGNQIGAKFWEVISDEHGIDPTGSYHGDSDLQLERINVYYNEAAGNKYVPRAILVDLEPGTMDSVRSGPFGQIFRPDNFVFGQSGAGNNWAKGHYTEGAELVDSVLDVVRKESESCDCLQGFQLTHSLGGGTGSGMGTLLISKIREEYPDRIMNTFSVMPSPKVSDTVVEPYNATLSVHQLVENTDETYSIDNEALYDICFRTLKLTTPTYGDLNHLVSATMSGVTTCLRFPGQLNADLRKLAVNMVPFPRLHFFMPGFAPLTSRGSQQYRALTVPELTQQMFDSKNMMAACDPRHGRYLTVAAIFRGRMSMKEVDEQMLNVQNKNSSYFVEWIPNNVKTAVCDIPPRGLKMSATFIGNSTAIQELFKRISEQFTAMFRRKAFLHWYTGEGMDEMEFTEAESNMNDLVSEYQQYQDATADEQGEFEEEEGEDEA
Method in brief: as §1

NONO = molecular target: T3, NONO (UniProt Q15233)
T3 sequence: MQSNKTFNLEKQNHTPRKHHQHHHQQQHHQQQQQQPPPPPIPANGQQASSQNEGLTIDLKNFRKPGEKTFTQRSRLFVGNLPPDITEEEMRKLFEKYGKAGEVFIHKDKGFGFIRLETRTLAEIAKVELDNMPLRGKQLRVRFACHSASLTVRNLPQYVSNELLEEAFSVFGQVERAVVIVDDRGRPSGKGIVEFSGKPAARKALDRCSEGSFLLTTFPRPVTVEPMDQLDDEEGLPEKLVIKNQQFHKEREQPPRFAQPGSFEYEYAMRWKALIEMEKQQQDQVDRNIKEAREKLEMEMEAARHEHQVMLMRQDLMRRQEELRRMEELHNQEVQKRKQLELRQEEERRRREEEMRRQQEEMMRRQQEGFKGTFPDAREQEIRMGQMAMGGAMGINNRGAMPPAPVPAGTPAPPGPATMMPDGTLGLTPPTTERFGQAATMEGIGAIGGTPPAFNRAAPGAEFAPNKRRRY
Method in brief: as §1

CXorf57 = CXorf57 (UniProt Q6NSI4)
Sequence of CXorf57 (Q6NSI4 whole entry): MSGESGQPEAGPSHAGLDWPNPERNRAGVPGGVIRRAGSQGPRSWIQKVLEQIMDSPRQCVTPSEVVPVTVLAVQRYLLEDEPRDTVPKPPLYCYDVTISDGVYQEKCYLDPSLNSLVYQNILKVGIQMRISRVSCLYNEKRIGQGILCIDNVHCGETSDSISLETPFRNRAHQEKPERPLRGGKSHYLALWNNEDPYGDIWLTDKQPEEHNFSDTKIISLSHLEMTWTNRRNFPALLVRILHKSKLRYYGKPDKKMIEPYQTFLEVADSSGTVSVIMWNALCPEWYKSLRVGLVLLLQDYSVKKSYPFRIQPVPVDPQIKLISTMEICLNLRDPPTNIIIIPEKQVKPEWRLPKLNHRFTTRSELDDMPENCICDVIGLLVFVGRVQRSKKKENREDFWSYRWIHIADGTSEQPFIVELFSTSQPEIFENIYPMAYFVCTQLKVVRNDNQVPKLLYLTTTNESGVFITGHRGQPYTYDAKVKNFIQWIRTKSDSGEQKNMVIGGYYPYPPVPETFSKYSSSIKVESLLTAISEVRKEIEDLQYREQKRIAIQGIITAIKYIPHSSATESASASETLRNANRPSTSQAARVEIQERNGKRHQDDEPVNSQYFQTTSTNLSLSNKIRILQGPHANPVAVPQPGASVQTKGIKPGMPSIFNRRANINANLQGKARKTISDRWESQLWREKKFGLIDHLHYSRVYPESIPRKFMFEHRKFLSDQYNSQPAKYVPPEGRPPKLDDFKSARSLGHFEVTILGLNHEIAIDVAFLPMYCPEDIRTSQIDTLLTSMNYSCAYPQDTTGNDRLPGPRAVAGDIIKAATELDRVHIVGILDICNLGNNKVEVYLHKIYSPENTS
Method in brief: as §1

CSNK2B = CSNK2B (UniProt P67870)
Sequence of CSNK2B (P67870 whole entry): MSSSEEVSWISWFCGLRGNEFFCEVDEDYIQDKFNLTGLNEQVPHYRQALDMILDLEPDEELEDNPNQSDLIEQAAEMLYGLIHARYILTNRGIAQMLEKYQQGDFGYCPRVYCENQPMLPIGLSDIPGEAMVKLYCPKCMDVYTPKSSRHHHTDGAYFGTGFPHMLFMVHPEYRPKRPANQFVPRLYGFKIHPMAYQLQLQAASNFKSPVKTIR
Method in brief: as §1

P4HB = P4HB (UniProt P07237)
Sequence of P4HB (P07237 whole entry, looked up): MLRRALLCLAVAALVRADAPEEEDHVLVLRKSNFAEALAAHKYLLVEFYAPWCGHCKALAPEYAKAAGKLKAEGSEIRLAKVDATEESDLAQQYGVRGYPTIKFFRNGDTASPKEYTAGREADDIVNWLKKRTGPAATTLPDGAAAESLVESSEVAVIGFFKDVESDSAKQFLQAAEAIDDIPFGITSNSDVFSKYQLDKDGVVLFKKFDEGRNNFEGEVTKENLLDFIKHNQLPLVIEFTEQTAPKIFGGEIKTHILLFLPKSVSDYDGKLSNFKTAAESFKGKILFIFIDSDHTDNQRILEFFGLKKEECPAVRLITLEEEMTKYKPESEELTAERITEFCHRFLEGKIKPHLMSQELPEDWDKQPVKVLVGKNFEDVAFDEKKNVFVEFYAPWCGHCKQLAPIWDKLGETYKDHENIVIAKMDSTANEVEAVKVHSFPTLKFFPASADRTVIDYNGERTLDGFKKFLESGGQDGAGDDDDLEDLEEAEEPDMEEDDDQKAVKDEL
Method in brief: as §1

IGF2BP3 = IGF2BP3 (UniProt O00425)
Sequence of IGF2BP3 (O00425 whole entry): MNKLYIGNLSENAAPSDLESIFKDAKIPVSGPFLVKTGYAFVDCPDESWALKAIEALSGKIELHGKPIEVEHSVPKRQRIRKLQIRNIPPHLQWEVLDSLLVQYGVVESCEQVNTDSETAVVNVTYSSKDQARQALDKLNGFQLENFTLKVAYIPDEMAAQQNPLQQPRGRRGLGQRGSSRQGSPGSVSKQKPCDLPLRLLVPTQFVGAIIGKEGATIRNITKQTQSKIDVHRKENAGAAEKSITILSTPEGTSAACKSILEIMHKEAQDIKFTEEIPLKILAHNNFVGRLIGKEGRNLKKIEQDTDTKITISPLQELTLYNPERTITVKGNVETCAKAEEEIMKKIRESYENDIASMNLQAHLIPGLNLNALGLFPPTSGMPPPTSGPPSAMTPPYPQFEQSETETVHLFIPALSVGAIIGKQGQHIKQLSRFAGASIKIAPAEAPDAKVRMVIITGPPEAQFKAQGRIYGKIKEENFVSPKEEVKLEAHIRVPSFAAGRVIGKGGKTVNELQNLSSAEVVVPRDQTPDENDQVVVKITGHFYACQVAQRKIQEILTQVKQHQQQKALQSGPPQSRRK
Method in brief: as §1

PCBP2 = PCBP2 (UniProt Q15366)
Sequence of PCBP2 (Q15366 whole entry): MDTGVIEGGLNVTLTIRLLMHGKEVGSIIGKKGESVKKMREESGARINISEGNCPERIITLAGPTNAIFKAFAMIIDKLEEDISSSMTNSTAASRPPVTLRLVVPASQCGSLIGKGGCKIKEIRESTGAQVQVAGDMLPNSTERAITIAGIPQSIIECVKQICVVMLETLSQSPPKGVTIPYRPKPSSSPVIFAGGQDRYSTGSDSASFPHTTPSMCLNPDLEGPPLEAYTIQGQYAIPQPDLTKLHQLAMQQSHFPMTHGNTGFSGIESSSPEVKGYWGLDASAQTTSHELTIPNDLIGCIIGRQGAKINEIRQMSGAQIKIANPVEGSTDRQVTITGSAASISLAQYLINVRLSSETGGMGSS
Method in brief: as §1

MRPL22 = MRPL22 (UniProt Q9NWU5)
Method in brief: as §1

RPS12 = RPS12 (UniProt P25398)
Method in brief: as §1

RPS14 = RPS14 (UniProt P62263)
Method in brief: as §1

MRPL13 = MRPL13 (UniProt Q9BYD1)
Method in brief: as §1

MRPS26 = MRPS26 (UniProt Q9BYN8)
Method in brief: as §1

**Q.** AAUAAA was tested. Which Kd (RPS17) did it give?
**A.** The Kd was 126 nM.

**Q.** What about the Kd (PTBP3) of the same sequence?
**A.** Its Kd is 1290 nM.

**Q.** What about the Kd (TIA1) of the same sequence?
**A.** The Kd was 158 nM.

**Q.** What about the Kd (PIP5K1A) of the same sequence?
**A.** Its Kd is 467 nM.

**Q.** What about the Kd (U2AF1) of the same sequence?
**A.** The Kd was 202 nM.

**Q.** And the Kd (TUBB2A)?
**A.** Its Kd is 1030 nM.

**Q.** What about the Kd (NONO) of the same sequence?
**A.** The Kd was 0.305 nM.

**Q.** What about the Kd (CXorf57) of the same sequence?
**A.** Its Kd is 1040 nM.

**Q.** And the Kd (CSNK2B)?
**A.** The Kd was 2220 nM.

**Q.** What about the Kd (P4HB) of the same sequence?
**A.** The Kd was 24.8 nM.

**Q.** With CUGUCCU as the sequence, how does the Kd (IGF2BP3) read?
**A.** The Kd was 685 nM.

**Q.** And the Kd (PCBP2)?
**A.** Its Kd is 1240 nM.

**Q.** And the Kd (MRPL22)?
**A.** Its Kd is 67.4 nM.

**Q.** And the Kd (RPS12)?
**A.** The Kd was 128 nM.

**Q.** What about the Kd (RPS14) of the same sequence?
**A.** Its Kd is 126 nM.

**Q.** And the Kd (MRPL13)?
**A.** Its Kd is 78.4 nM.

**Q.** Which Kd (MRPS26) does the source give for UAUUUAU here?
**A.** The Kd was 15.9 nM.
